Source: publication PMC9482650, “Quantitative fragmentomics allow affinity mapping of interactomes” (Nature Communications, 2022)

Tests used:
Assay in all cases: holdup assay
Parameters in all cases: key: below the threshold = too weak to quantify, mostly under pKd 3.1 to 4
Conditions in all cases: plain residues with an end cap or a label only (N-terminal biotin on a linker: ado-ado)
NHERF4_2, Q86UT5 = biological target: NHERF4_2, Q86UT5
Inadl_10, Q8NI35 = biological target: Inadl_10, Q8NI35
SCRIB_1, Q14160 = biological target: SCRIB_1, Q14160
LNX2_2, Q8N448 = biological target: T1, LNX2_2, Q8N448
T1 sequence (Q8N448 334-432, limits assumed, looked up): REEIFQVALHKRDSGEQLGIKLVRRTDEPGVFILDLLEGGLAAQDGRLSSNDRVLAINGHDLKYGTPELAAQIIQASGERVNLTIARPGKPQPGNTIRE

IL16_3, Q14005 = biological target: IL16_3, Q14005
DFNB31_3, Q9P202 = biological target: T2, DFNB31_3, Q9P202
T2 sequence (Q9P202 811-907, limits assumed, looked up): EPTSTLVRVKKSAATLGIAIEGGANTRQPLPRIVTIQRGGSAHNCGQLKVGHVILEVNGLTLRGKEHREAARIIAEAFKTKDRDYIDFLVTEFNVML

MPDZ_12, O75970 = biological target: T3, MPDZ_12, O75970
T3 sequence (O75970 1857-1958, limits assumed, looked up): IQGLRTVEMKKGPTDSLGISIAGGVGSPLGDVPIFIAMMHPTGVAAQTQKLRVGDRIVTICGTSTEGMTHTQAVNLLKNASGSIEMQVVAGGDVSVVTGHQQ

SNX27, Q96L92 = biological target: SNX27, Q96L92
SNTB1, Q13884 = biological target: T4, SNTB1, Q13884
T4 sequence (Q13884 107-205, limits assumed, looked up): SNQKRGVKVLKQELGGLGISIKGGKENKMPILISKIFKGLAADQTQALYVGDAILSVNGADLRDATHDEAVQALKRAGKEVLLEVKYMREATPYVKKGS

TJP3_3, O95049 = biological target: T5, TJP3_3, O95049
T5 sequence (O95049 375-456, limits assumed, looked up): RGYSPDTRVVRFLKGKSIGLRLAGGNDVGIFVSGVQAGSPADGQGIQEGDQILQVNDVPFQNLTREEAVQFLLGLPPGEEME

ARHGEF11, O15085 = biological target: T6, ARHGEF11, O15085
T6 sequence (O15085 42-136, limits assumed, looked up): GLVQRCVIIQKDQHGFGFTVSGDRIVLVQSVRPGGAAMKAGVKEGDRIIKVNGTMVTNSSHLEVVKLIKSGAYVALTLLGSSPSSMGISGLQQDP

SNTG1, Q9NSN8 = biological target: T7, SNTG1, Q9NSN8
T7 sequence (Q9NSN8 52-150, limits assumed, looked up): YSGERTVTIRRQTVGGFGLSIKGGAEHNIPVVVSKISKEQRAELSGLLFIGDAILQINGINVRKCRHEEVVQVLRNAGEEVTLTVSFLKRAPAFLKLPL

DFNB31_2, Q9P202 = biological target: T8, DFNB31_2, Q9P202
T8 sequence (Q9P202 274-371, limits assumed, looked up): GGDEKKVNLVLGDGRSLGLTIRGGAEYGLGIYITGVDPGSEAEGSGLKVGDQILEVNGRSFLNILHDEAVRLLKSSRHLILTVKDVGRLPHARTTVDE

PICK1, Q9NRD5 = biological target: PICK1, Q9NRD5
MAGI2_6, Q86UL8 = biological target: MAGI2_6, Q86UL8
HTRA3, P83110 = biological target: T9, HTRA3, P83110
T9 sequence (P83110 354-453, limits assumed, looked up): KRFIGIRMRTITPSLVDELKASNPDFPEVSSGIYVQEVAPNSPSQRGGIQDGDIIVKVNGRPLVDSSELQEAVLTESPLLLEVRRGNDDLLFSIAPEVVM

Inadl_4, Q8NI35 = biological target: Inadl_4, Q8NI35
CASK, O14936 = biological target: CASK, O14936
NOS1, P29475 = biological target: NOS1, P29475
DLG1_2, Q12959 = biological target: DLG1_2, Q12959
GIPC2, Q8TF65 = biological target: GIPC2, Q8TF65
TJP1_3, Q07157 = biological target: TJP1_3, Q07157
DLG1_1, Q12959 = biological target: DLG1_1, Q12959
PTPN3, P26045 = biological target: PTPN3, P26045
GOPC, Q9HD26 = biological target: GOPC, Q9HD26
RAPGEF6, Q8TEU7 = biological target: T10, RAPGEF6, Q8TEU7
T10 sequence (Q8TEU7 525-625, limits assumed, looked up): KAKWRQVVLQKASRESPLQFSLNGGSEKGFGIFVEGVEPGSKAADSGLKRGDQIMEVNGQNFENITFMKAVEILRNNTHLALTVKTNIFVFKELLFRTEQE

APBA3_1, O96018 = biological target: T11, APBA3_1, O96018
T11 sequence (O96018 389-490, limits assumed, looked up): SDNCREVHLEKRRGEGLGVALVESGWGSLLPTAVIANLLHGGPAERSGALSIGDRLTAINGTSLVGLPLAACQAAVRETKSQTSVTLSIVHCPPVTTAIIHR

NOS1, P29475, sequence (P29475 9-101): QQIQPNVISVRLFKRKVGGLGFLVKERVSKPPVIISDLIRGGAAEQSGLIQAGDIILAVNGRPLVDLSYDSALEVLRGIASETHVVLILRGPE
TJP1_3, Q07157, sequence (Q07157 416-512): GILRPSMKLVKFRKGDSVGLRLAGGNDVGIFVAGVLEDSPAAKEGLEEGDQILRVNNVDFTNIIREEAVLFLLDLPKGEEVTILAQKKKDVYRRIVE
Inadl_4, Q8NI35, sequence (Q8NI35 547-651): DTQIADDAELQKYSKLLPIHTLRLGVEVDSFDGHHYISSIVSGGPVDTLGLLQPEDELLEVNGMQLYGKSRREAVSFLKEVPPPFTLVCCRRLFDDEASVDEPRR
NHERF4_2, Q86UT5, sequence (Q86UT5 220-308): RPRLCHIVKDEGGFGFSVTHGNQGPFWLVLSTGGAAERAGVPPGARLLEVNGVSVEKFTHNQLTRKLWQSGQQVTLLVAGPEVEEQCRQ
PTPN3, P26045, sequence (P26045 505-587): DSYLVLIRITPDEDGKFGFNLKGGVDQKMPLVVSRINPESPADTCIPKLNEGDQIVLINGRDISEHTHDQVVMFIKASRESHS
Inadl_10, Q8NI35, sequence (Q8NI35 1673-1763): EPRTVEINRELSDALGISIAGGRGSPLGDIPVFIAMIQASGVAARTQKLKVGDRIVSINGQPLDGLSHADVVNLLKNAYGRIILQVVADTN
CASK, O14936, sequence (O14936 487-570): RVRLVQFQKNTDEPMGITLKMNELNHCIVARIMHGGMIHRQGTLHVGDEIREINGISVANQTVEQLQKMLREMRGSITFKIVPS
SCRIB_1, Q14160, sequence (Q14160 718-814): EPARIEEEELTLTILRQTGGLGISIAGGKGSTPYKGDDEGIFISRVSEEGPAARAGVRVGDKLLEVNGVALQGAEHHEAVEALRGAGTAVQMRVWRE
IL16_3, Q14005, sequence (Q14005 1107-1207): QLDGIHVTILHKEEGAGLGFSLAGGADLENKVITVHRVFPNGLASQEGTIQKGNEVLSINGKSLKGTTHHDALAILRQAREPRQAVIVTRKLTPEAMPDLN
PICK1, Q9NRD5, sequence (Q9NRD5 17-115): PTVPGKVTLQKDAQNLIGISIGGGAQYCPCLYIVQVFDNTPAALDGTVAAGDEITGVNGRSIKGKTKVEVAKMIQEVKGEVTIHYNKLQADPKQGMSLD
GIPC2, Q8TF65, sequence (Q8TF65 112-203): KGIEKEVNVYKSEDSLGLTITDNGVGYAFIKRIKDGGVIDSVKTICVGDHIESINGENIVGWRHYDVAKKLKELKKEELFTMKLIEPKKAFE
MAGI2_6, Q86UL8, sequence (Q86UL8 1141-1229): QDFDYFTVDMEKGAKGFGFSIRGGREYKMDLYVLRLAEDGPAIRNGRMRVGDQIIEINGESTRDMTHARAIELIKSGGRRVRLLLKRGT

Binder	pKd (NHERF4_2, Q86UT5)	pKd (Inadl_10, Q8NI35)	pKd (SCRIB_1, Q14160)	pKd (LNX2_2, Q8N448)	pKd (IL16_3, Q14005)	pKd (DFNB31_3, Q9P202)	pKd (MPDZ_12, O75970)	pKd (SNX27, Q96L92)	pKd (SNTB1, Q13884)	pKd (TJP3_3, O95049)	pKd (ARHGEF11, O15085)	pKd (SNTG1, Q9NSN8)	pKd (DFNB31_2, Q9P202)	pKd (PICK1, Q9NRD5)	pKd (MAGI2_6, Q86UL8)	pKd (HTRA3, P83110)	pKd (Inadl_4, Q8NI35)	pKd (CASK, O14936)	pKd (NOS1, P29475)	pKd (DLG1_2, Q12959)	further results
IKLETKKTKL [SLC15A2, Q16348]	3.63	below the threshold	3.79	below the threshold	below the threshold	4.16	below the threshold	3.94	3.71	below the threshold	4.27	3.64	3.55	below the threshold	below the threshold	below the threshold	below the threshold	below the threshold	3.61	below the threshold	pKd (GIPC2, Q8TF65): below the threshold; pKd (TJP1_3, Q07157): 3.54; pKd (DLG1_1, Q12959): below the threshold; pKd (PTPN3, P26045): below the threshold; pKd (GOPC, Q9HD26): 4.29; pKd (RAPGEF6, Q8TEU7): 3.48; pKd (APBA3_1, O96018): below the threshold
GQNMTVSVVI [PRLHR, P49683]	below the threshold	below the threshold	3.65	5.11	below the threshold	4.21	below the threshold	4.34	4.15	below the threshold	4.94	below the threshold	below the threshold	below the threshold	below the threshold	3.72	below the threshold	below the threshold	3.82	below the threshold	pKd (GIPC2, Q8TF65): below the threshold; pKd (TJP1_3, Q07157): below the threshold; pKd (DLG1_1, Q12959): below the threshold; pKd (PTPN3, P26045): 3.77; pKd (GOPC, Q9HD26): below the threshold; pKd (RAPGEF6, Q8TEU7): below the threshold; pKd (APBA3_1, O96018): below the threshold
NSTHNLKDYV [CLDN20, P56880]	below the threshold	below the threshold	below the threshold	4.12	below the threshold	below the threshold	below the threshold	below the threshold	below the threshold	below the threshold	below the threshold	below the threshold	below the threshold	below the threshold	below the threshold	3.97	below the threshold	below the threshold	3.58	3.5	pKd (GIPC2, Q8TF65): below the threshold; pKd (TJP1_3, Q07157): below the threshold; pKd (DLG1_1, Q12959): below the threshold; pKd (PTPN3, P26045): below the threshold; pKd (GOPC, Q9HD26): below the threshold; pKd (RAPGEF6, Q8TEU7): below the threshold; pKd (APBA3_1, O96018): below the threshold
DLLGGGSDSI [TNRC6B, Q9UPQ9]	below the threshold	below the threshold	below the threshold	below the threshold	below the threshold	4.01	3.53	below the threshold	below the threshold	below the threshold	3.65	below the threshold	below the threshold	below the threshold	below the threshold	below the threshold	below the threshold	below the threshold	3.9	below the threshold	pKd (GIPC2, Q8TF65): 3.55; pKd (TJP1_3, Q07157): below the threshold; pKd (DLG1_1, Q12959): below the threshold; pKd (PTPN3, P26045): below the threshold; pKd (GOPC, Q9HD26): below the threshold; pKd (RAPGEF6, Q8TEU7): below the threshold; pKd (APBA3_1, O96018): below the threshold
TKEIPNCTSV [SORCS3, Q9UPU3]	3.49	3.95	4.53	4.52	below the threshold	4.05	3.84	5.16	4.25	3.54	4.82	4	below the threshold	4.17	4.43	3.52	below the threshold	below the threshold	3.57	4.43	pKd (GIPC2, Q8TF65): 3.83; pKd (TJP1_3, Q07157): below the threshold; pKd (DLG1_1, Q12959): 4.22; pKd (PTPN3, P26045): 4.74; pKd (GOPC, Q9HD26): 3.95; pKd (RAPGEF6, Q8TEU7): below the threshold; pKd (APBA3_1, O96018): below the threshold
QLKSGRDSTV [TMEM178A, Q8NBL3]	3.62	below the threshold	3.56	3.49	below the threshold	below the threshold	below the threshold	4.01	4.1	3.5	4.11	3.81	3.52	4.35	3.85	below the threshold	below the threshold	3.54	3.52	4.64	pKd (GIPC2, Q8TF65): 3.87; pKd (TJP1_3, Q07157): 3.5; pKd (DLG1_1, Q12959): 4.11; pKd (PTPN3, P26045): 4.4; pKd (GOPC, Q9HD26): 3.57; pKd (RAPGEF6, Q8TEU7): below the threshold; pKd (APBA3_1, O96018): below the threshold
